Measurements reported in patent US9266964.
Positions count from the first letter of the chain named.

B1: M9-G08 (Fab, V domains shown)
VH: EVQLLESGGGLVQPGGSLRLSCAASGFTFSYYTMLWVRQAPGKGLEWVSSIYPSGGFTMYADSVKGRFTISRDNSKNTLYLQMNSLRAEDTAVYYCARVDTAMAMIDYWGQGTLVTVSS
VL: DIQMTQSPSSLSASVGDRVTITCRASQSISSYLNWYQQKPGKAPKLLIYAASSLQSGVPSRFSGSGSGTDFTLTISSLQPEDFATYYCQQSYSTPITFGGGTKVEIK
notes: Fab fragment (E. coli TG1); printed HC runs into the start of CH1
B2: M10-A03 (Fab, V domains shown)
VH: EVQLLESGGGLVQPGGSLRLSCAASGFTFSPYPMQWVRQAPGKGLEWVSSISSSGGMTEYADSVKGRFTISRDNSKNTLYLQMNSLRAEDTAVYYCARDDYGGKGGAFDIWGQGTMVTVSS
VL: DIQMTQSPSSLSASVGDRVTITCRASQRISFYLNWFQQKPGKAPNLLIYGASSLQSGVPSRFSGSGSGTDFTLTISSLQPKDFGTYYCQQTFSTPNTFGQGTKLEIK
notes: as for B1
B3: M11-E06 (Fab, V domains shown)
VH: EVQLLESGGGLVQPGGSLRLSCAASGFTFSQYAMHWVRQAPGKGLEWVSSIYPSGGFTLYADSVKGRFTISRDNSKNTLYLQMNSLRAEDTAMYYCARGGWLAGGELLNWGQGTLVTVSS
VL: DIQMTQSPSSLSASIGDRVTISCRASRGIGTYLNWYQQHAGKAPKLLIRAASSLETGVPPRFSGSGSGTDFTLTISSLQSDDFATYYCQESFTNVYNFGQGTKLEIK
notes: as for B1
B4: M10-G09 (Fab, V domains shown)
VH: EVQLLESGGGLVQPGGSLRLSCAASGFTFSQYGMQWVRQAPGKGLEWVSSIRSSGGATRYADSVKGRFTISRDNSKNTLYLQMNSLRAEDTAVYYCARDGYYDSSGYPDYWGQGTLVTVSS
VL: DIQMTQSPSSLSASVGDSVTITCRASQSISGYINWYQQKAGKAPKLLIYAASSLQSGVPSRFSGSGSGTHFTLTISSLQPEDFATYYCQQYVSYPFTFGPGTKVDIK
notes: as for B1
B5: M11-E04 (Fab, V domains shown)
VH: EVQLLESGGGLVQPGGSLRLSCAASGFTFSMYHMNWVRQAPGKGLEWVSGIVSSGGVTFYADSVKGRFTISRDNSKNTLYLQMNSLRAEDTAVYYCARITTVTTGGAFDIWGQGTMVTVSS
VL: DIQMTQSPSSLSASVGDRVTITCRASQSISIYLTWYQHRPGKAPNLLIYGAATLQTGVPSRFSGSGSGTDFTLTIRGLQPEDFATYYCQQTFSLPRTFGQGTKLEIK
notes: as for B1
B6: M11-E05 (Fab, V domains shown)
VH: EVQLLESGGGLVQPGGSLRLSCAASGFTFSWYTMGWVRQAPGKGLEWVSWIYFGGLTTYADSVKGRFTISRDNSKNTLYLQMNSLRAEDTAVYYCARLGGPLDAFDIWGQGTMVTVSS
VL: DIQMTQSPSSLSASVGDTVTITCRTSQTINNYLNWYQQRPGEAPKVLIYATHTLESGVPSRFSGSGSGTDFTLTIGSLQPEDFATYYCQQSFAFPYTFGQGTKVEIT
notes: as for B1
B7: M10-A12 (Fab, V domains shown)
VH: EVQLLESGGGLVQPGGSLRLSCAASGFTFSLYLMHWVRQAPGKGLEWVSSIYSSGGFTTYADSVKGRFTISRDNSKNTLYLQMNSLRAEDTAVYYCARDTDYGMDVWGQGTTVTVSS
VL: DIQMTQSPLSLSAFVGDRVTITCRASRDISVYLNWYQLKSGKAPKLLIYGASSLQSGVPSRFSGSGSGTDFTLTITSLQPEDFATYYCQQSYSIPFTFGGGTKVETK
notes: as for B1
B8: M9-H03 (Fab, V domains shown)
VH: EVQLLESGGGLVQPGGSLRLSCAASGFTFSWYSMGWVRQAPGKGLEWVSYIVPSGGYTMYADSVKGRFTISRDNSKNTLYLQMNSLRAEDTAVYYCARDPGVSYYYYGMDVWGQGTTVTVSS
VL: QYELTQAPSVSVAPGQTASITCSGDKLGNRYTSWYQQKPGQSPVLVIFQDNKRPSGIPERFSGSNSGNTATLTISGTQAMDEADYYCQALDSNTYVFGTGTKVTVL
notes: as for B1
B9: M10-E06 (Fab, V domains shown)
VH: EVQLLESGGGLVQPGGSLRLSCAASGFTFSLYRMFWVRQAPGKGLEWVSSIWSSGGPTMYADSVKGRFTISRDNSKNTLYLQMNSLRAEDTAVYYCAREYPSTYYFDYWGQGTLVTVSS
VL: DIQMTQSPSSLSASVGDRVTITCRASQSISTYLNWYQQKPGKAPKLLIYGASSLQSGVPSRFSGSGSGTDFTLTISSLQPEDFTIYYCQQSYSDPYTFGQGTKLDIK
notes: as for B1
B10: M12-A08 (Fab, V domains shown)
VH: EVQLLESGGGLVQPGGSLRLSCAASGFTFSWYYMGWVRQAPGKGLEWVSWIVSSGGLTLYADSVKGRFTISRDNSKNTLYLQMNSLRAEDTAMYYCARTTVTTGDAFDIWGQGTMVTVSS
VL: B9 VL with T31R, G50A, S53T, Q55E, S56T, S76T, S77T, T84V, D94T, D105E
notes: as for B1
B11: M11-G09 (Fab, V domains shown)
VH: EVQLLESGGGLVQPGGSLRLSCAASGFTFSLYNMTWVRQAPGKGLEWVSYIYPSGGGTHYADSVKGRFTISRDNSKNTLYLQMNSLRAEDTAVYYCARDTGFWSADAFDIWGQGTMVTVSS
VL: DIQMTQSPSSLSASVGDRVTITCRTSQGINHYLNWYQQKPGKAPKILVFAASELQTGVPSRFSGTGSGTSYTLTITSLQPEDVATYYCQQTYTSPYTFGQGTKLEVK
notes: as for B1
B12: M10-B09 (Fab, V domains shown)
VH: EVQLLESGGGLVQPGGSLRLSCAASGFTFSWYEMSWVRQAPGKGLEWVSRIWPSGGVTMYADSVKGRFTISRDNSKNTLYLQMNSLRAEDTAVYYCTRTSITTVGMDVWGQGTTVTVSS
VL: DIQMTQSPSSLSASVGDGVTITCRASQSISTYLNWYQQRPGKAPKLLIYGASSLQSGVPSRFSGSGSGTDFTLTISSLQREDFATYYCQQSFSTPWTFGQGTRVEIK
notes: Fab fragment (E. coli TG1); printed HC runs into the start of CH1; The HC is printed with an amber codon 'q' (LqMNSL), written here as Q
B13: M10-C11 (Fab, V domains shown)
VH: EVQLLESGGGLVQPGGSLRLSCAASGFTFSMYPMMWVRQAPGKGLEWVSYISPSGGMTDYADSVKGRFTISRDNSKNTLYLQMNSLRAEDMAVYYCARVAGSSDAFDIWGQGTMVTVSS
VL: DIQMTQSPSSLSASVGDRVTITCRASQSISIYLNWYQQKPEKAPKLLIFAASTLQSGVPSRFSGSGSGTDFTLTISNLQPEDFATYYCQQSHSIPPTFGLGTKVEVK
notes: as for B1
B14: M11-E01 (Fab, V domains shown)
VH: EVQLLESGGGLVQPGGSLRLSCAASGFTFSTYEMYWVRQAPGKGLEWVSGIGSSGGMTMYADSVKGRFTISRDNSKNTLYLQMNSLRAEDTAMYYCAREQPGIAALQFWGQGTLVTVSS
VL: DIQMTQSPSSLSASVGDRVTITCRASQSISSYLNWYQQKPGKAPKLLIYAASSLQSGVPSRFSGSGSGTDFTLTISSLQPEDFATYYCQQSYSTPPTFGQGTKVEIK
notes: as for B1
B15: M11-A10 (Fab, V domains shown)
VH: EVQLLESGGGLVQPGGSLRLSCAASGFTFSNYWMMWVRQAPGKGLEWVSGIGSSGGFTSYADSVKGRFTISRDNSKNTLYLQMNSLRAEDTAVYYCAKGSYSDYGVFESWGQGTLVTVSS
VL: DIQMTQSPSSLSASVGDRVAITCRASQSIDTYLNWYQQKPGKAPKLLIYDASNLEIGVPSRFSGSGSGTDFTFIINSLQPEDVATYYCQHYLYAPYSFGQGTKLEIK
notes: as for B1
B16: M9-H02 (Fab, V domains shown)
VH: EVQLLESGGGLVQPGGSLRLSCAASGFTFSAYMMIWVRQAPGKGLEWVSVIYPSGGVTMYADSVKGRFTISRDNSKNTLYLQMNSLRAEDTAVYYCARGTVGASDAFDIWGQGTMVTVSS
VL: DIQMTQSPSSLSASVGDRVIITCRASRSIATYLNWYQQKPGKAPNLLIFGASTLQSGVPSRFSGSGSGTDFTLTISDLQPEDFATYYCQQSFSDPYTFGQGTNLEMK
notes: as for B1
B17: M10-D11 (Fab, V domains shown)
VH: EVQLLESGGGLVQPGGSLRLSCAASGFTFSAYPMNWVRQAPGKGLEWVSRISSSGGNTSYADSVKGRFTISRDNSKNTLYLQMNSLRAEDTAVYYCALGYLGYWGQGTLVTVSS
VL: not shown
notes: as for B1
B18: M12-B04 (Fab, V domains shown)
VH: EVQLLESGGGLVQPGGSLRLSCAASGFTFSLYSMYWVRQAPGKGLEWVSRIRPSGGGTVYADSVKGRFTISRDNSKNTLYLQMNSLRAEDTAVYYCARDPLYSSGDVWGQGTTVTVSS
VL: DIQMTQSPSSLSASVGDRVTITCRASQGIRNDLGWYQHKPGKAPKLLIYAASILQSGVPSRFSGTASGTDFTLTISSLQPEDFATYFCLQDYEYPLTFGGGTKLDIK
notes: as for B1
B19: M9-F10 (Fab, V domains shown)
VH: EVQLLESGGGLVQPGGSLRLSCAASGFTFSDYDMEWVRQAPGKGLEWVSSISPSGGSTIYADSVKGRFTISRDNSKNTLYLQMNSLRAEDTAVYYCARQGLLTAFDIWGQGTMVTVSS
VL: DIQMTQSPSSLSASVGDRVTITCRASQSINTYLNWYQQKPGKAPKVLIHAASTLESGVPSRFSGSGSGTDFTLTISSLQPEDFATYYCQQSYSTPYTFGQGTKLEVR
notes: as for B1
B20: M11-G12 (Fab, V domains shown)
VH: EVQLLESGGGLVQPGGSLRLSCAASGFTFSQYPMNWVRQAPGKGLEWVSSISSSGGFTTYADSVKGRFTISRDNSKNTLYLQMNSLRAEDTAVYYCAREEQQGGFDYWGQGTLVTVSS
VL: DIQMTQSPSSLSAFVGDRVSITCRASQTISVYVNWYQHKSGQAPKLLIYGASSLQSGVPSRFSGSGSGTDFTLTISSLQPEDFATYFCQQSYSIPFTFGGGTDVQIR
notes: as for B1
B21: M9-H04 (Fab, V domains shown)
VH: EVQLLESGGGLVQPGGSLRLSCAASGFTFSAYTMWWVRQAPGKGLEWVSSIWPSGGSTFYADSVKGRFTISRDNSKNTLYLQMNSLRAEDTAVYYCARTYDSSAGEVDYWGQGTLVTVSS
VL: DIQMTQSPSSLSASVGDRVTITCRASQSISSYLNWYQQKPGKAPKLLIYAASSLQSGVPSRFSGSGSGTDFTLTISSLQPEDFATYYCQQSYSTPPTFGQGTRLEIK
notes: as for B1
B22: M10-F09 (Fab, V domains shown)
VH: EVQLLESGGGLVQPGGSLRLSCAASGFTFSNYDMMWVRQAPGKGLEWVSYISPSGGFTRYADSVKGRFTISRDNSKNTLYLQMNSLRAEDTATYYCAKDIYYYNWGPSHYFDSWGQGTLVTVSS
VL: DIQMTQSPSSLSASVGDRVTITCRASQTIDDDLIWYQQKPGRAPKLLIYAASSLQSGVPSRFSGSGSGTDFTLTITSLQPEDFATYYCQQSYNIPRTFGQGTKLESK
notes: as for B1

Target: T1, human plasma kallikrein (human, UniProt P03952 20-390; P03952 391-638)
T1 construct: two disulfide-linked chains; also called pKal; human pKal
T1 sequence (P03952 20-390, chain 1 of 2): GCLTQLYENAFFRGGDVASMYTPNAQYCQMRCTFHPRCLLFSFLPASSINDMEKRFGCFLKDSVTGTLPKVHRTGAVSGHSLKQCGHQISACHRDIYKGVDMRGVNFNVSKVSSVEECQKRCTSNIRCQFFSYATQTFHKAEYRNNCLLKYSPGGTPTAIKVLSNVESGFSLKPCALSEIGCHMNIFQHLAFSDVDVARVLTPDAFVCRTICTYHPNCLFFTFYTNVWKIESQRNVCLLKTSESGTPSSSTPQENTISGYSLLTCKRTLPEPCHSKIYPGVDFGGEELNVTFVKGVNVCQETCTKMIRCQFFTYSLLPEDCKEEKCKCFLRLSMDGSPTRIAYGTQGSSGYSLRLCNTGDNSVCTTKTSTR
T1 sequence (P03952 391-638, chain 2 of 2): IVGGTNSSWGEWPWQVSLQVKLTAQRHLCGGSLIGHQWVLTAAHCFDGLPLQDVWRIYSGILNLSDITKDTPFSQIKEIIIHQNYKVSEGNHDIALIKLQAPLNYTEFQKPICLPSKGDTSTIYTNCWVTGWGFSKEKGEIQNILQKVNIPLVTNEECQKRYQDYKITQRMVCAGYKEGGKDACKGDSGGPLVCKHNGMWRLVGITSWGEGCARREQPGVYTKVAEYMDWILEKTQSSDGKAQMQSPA
Experiment: ELISA; signal on coated biotinylated human plasma kallikrein divided by signal on streptavidin; Fab
Description: Abbreviations used: "T/B" is the ELISA signal obtained using of the target (biotinylated plasma kallikrein) divided by the ELISA signal of the "background" (streptavidin); both of which were coated on microtiter plates. "nd" is not determined. The symbol "q" refers to the amber suppressible stop codon (TAG), which is translated as glutamine (Q) in strains of E. coli such as the TG1 cells that were used to express the Fab fragments.

| Human pKal ELISA (T/B) | Binder |
| --- | --- |
| 4.8 T/B (target signal / background signal) | B1 |
| 33.7 T/B (target signal / background signal) | B2 |
| 12.6 T/B (target signal / background signal) | B3 |
| 7.1 T/B (target signal / background signal) | B4 |
| 43.2 T/B (target signal / background signal) | B5 |
| 41.4 T/B (target signal / background signal) | B6 |
| 20.8 T/B (target signal / background signal) | B7 |
| 4.4 T/B (target signal / background signal) | B8 |
| 32.8 T/B (target signal / background signal) | B9 |
| 40.4 T/B (target signal / background signal) | B10 |
| 23.6 T/B (target signal / background signal) | B11 |
| 14.1 T/B (target signal / background signal) | B12 |
| 5.3 T/B (target signal / background signal) | B13 |
| 11.7 T/B (target signal / background signal) | B14 |
| 25 T/B (target signal / background signal) | B15 |
| 3.5 T/B (target signal / background signal) | B16 |
| 6.4 T/B (target signal / background signal) | B17 |
| 18 T/B (target signal / background signal) | B18 |
| 8.4 T/B (target signal / background signal) | B19 |
| 4.9 T/B (target signal / background signal) | B20 |
| 16.1 T/B (target signal / background signal) | B21 |
| 4.8 T/B (target signal / background signal) | B22 |
